Experimental data reported in article PMC10954691, “A structure-based designed small molecule depletes hRpn13^Pru and a select group of KEN box proteins” (Nature Communications, 2024).

Biological target: T1, hRpn13 Pru (1-150) (human, UniProt Q16186 1-150)
T1 construct: hRpn13 (proteasome subunit, gene ADRM1), Pru domain, residues 1-150; printed MW 17017.3 g/mol; also called hRpn13 Pru domain
Test: 19F NMR of the competing small molecule XL44; 25 or 50 uM hRpn2 (940-953) added to preincubated 50 uM XL44 and equimolar hRpn13 Pru; NMR buffer (20 mM sodium phosphate, 50 mM NaCl, 2 mM DTT, 10% DMSO-d6, pH 6.5), 10 °C
Details: both partners purified

T1 sequence (Q16186 1-150): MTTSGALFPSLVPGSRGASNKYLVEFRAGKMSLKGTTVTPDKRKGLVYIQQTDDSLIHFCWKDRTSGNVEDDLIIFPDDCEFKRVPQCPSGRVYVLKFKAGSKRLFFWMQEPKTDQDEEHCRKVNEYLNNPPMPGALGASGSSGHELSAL

B1: hRpn2 (940-953) (peptide, UniProt Q99460 940-953, looked up)
chain: QEPEPPEPFEYIDD
notes: hRpn2 (proteasome regulatory particle subunit), extreme C-terminus, residues 940-953; also called hRpn2 peptide; not shown: GST, N-terminal, cleaved
  binding result: binds
